In patent US20200299380A1 (published 2020):
Changes are numbered by the printed parent chain. Each block holds one binder with its values, some of them ahead of it.

What was measured:
[1] = biological target: T1, recombinant human MICA extracellular domain recombinant-His protein (MICA*001 allele) (human, UniProt Q29983 24-297); experiment: SPR (Biacore T100), monovalent affinity
T1 construct: also called MICA*001-His; MICA-His; not shown: His tag
T1 sequence: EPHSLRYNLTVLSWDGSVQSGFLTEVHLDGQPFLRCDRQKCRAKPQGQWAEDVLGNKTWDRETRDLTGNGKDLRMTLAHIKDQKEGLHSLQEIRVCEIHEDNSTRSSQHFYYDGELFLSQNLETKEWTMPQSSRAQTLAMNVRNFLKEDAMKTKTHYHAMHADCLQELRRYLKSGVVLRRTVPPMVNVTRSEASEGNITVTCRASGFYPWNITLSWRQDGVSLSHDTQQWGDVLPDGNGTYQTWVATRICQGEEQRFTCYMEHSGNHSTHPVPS

[2] = biological target: T1, recombinant human MICA extracellular …; experiment: SPR (Biacore T100), bivalent mean KD at pH 7.4, MICA*001-His on NTA chip, antibody injected
Protocol: The binding of 6E4, 20C6 and 16A8 to either recombinant human MICA extracellular domain recombinant protein monomers or dimers (MICA*019 allele-Fc protein or MICA*001-His protein) as well as other NKG2D ligands MICB and ULBP1-2 was analyzed by Surface Plasmon Resonance (SPR) using a Biacore T100 apparatus to obtain monovalent and bivalent affinity, respectively.
Each cycle consisted of three steps. Firstly, the NTA chip was activated with NiSO₄ (500 mM). Secondly, the MICA-His protein (diluted to 10 μg/ml in running buffer HBS-P) was immobilized onto the surface via a 2 min injection at a constant flowrate of 10 μL/min. Then the antibody was injected over the immobilized antigen for 2 min at the flow rate of 40 μl/min. Subsequently, the running buffer was injected for 5 min at 40 μl/min for antibody dissociation analysis. After each cycle, the surface was regenerated by a 60s injection of 0.5M EDTA, pH 8.3 to completely strip the surface of the remaining antigen and antibody. The resulting sensorgrams were analyzed by global fitting using the appropriate model.

[3] = biological target: T2, MICB-Fc (R&D Systems 1599-MB) (human, UniProt Q29980 23-298, limits assumed); experiment: SPR, antibody injected over immobilized MICB-Fc
T2 construct: Bought; also called human MICB-Fc; not shown: Fc of the bought fusion protein
T2 sequence: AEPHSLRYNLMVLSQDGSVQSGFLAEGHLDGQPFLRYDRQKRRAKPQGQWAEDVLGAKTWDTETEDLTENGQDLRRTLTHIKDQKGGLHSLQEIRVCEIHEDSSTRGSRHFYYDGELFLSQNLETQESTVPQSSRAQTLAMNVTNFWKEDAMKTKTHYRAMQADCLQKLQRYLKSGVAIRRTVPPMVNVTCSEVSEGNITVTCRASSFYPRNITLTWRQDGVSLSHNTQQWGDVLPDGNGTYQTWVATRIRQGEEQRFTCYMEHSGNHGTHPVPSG
Protocol: For cross-binding study, the human ULBP-1-Fc (R&D systems*), MICB-Fc (*), ULBP-2-Fc (*) and ULBP-3-Fc (*) recombinant proteins were covalently immobilized respectively on the flow cell one to four of a CM5 sensorchip. Anti-MICA antibodies (at a constant concentration of 10 μg/ml) were injected for 2 minutes at a flow rate of 10 μl/min onto the four flow cells in parallel. After each cycle, Sensorchip was regenerated by a five second injection of appropriate regeneration buffer.

[4] = biological target: T3, MICA*001 expressed at the cell surface (human, UniProt Q29983 24-297); experiment: flow cytometry on C1R transfectant cells, 4-parameter logistic fit
T3 construct: the protein on cells also has its transmembrane and cytoplasmic parts (Genbank AAB41060); also called C1R-MICA*001; C1R-MICA*01
T3 sequence: T1 sequence
Protocol: (§1) The binding of antibodies obtained from the first, second and third immunization series (including CHG1-M-MIA-19E9, CHG1-M-MIA-9C10, CHG1-M-MIA-6E4, CHG1-M-MIA-20C6, CHG1-M-MIA-16A8, CHG1-M-MIA-12A10, CHG1-M-MIA-10A7, CHG1-M-MIA-18E8, CHG1-M-MIA-10F3, CHG1-M-MIA-15F9 and CHG1-M-MIA-14B4) were tested for binding to MICA-expressing CR1 transfectant cells C1R-MICA*001, C1R-MICA*004, C1R-MICA*007 and C1R-MICA*008 (Pr. A. Steinle, Eberhard-Karls University Tuebingen, Germany) described in Salih et al. (2003) Blood 102(4): […]. Binding was analyzed by flow cytometry.
(§2) Cells were harvested and stained in PBS 1×/BSA 0.2%/EDTA 2 mM buffer during 30 minutes at 4° C. using a dose-range of the anti-MICA mAbs. After two washes in staining buffer, cells were stained for 30 min at 4° C. with mouse anti-human IgG1-PE monoclonal antibodies (1/11). After two washes, stainings were acquired on a BD FACS Canto II and analyzed using the FlowJo software.
(§3) Antibodies CHG1-M-MIA-19E9, CHG1-M-MIA-9C10, CHG1-M-MIA-6E4, CHG1-M-MIA-20C6, CHG1-M-MIA-12A10, CHG1-M-MIA-10A7, CHG1-M-MIA-18E8, CHG1-M-MIA-10F3, and CHG1-M-MIA-15F9 bound to each of the C1R-MICA*001, C1R-MICA*004, C1R-MICA*007 and C1R-MICA*008 cells (see FIG. 1A for antibodies CHG1-M-MIA-19E9, CHG1-M-MIA-9C10, CHG1-M-MIA-6E4, CHG1-M-MIA-20C6, CHG1-M-MIA-12A10, CHG1-M-MIA-10F3, and FIG. 1B for antibodies, CHG1-M-MIA-18E8, CHG1-M-MIA-15F9, CHG1-M-MIA-10A7). […] EC50 values are shown in Table C in μg/ml (calculated using a 4-parameter logistic fit).

[5] = biological target: T4, MICA*004 expressed at the cell surface (human, UniProt Q29983 24-297); experiment: as above
T4 construct: also called C1R-MICA*004; C1R-MICA*04
T4 chain: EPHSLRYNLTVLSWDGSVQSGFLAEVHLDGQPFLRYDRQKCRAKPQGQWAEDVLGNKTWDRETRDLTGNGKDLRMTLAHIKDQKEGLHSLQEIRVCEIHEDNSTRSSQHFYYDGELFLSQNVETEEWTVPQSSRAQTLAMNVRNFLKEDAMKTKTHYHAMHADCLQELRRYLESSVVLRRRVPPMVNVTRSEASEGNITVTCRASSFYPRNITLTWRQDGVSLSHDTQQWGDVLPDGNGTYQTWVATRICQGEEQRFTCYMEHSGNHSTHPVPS
Protocol: as §1, §2, §3

[6] = biological target: T5, MICA*008 expressed at the cell surface (human, UniProt Q29983 24-297); experiment: as above
T5 construct: also called C1R-MICA*008; C1R-MICA*08
T5 chain: T4 chain with V122L, S175G, R181T, T213I, Q251R
Protocol: as §1, §2, §3

[7] = biological target: T6, MICA*007 expressed at the cell surface (human, UniProt Q29983 24-297); experiment: as above
T6 construct: also called C1R-MICA*007; C1R-MICA*07
T6 chain: T1 sequence with T24A, K125E
Protocol: as §1, §2, §3

MICA*001-BirA = biological target: T7, MICA*001-BirA (human, UniProt Q29983 24-297); experiment: SPR single cycle kinetics, monovalent mean KD at pH 7.4, antibody captured on Protein-G chip, MICA-BirA injected
T7 construct: also called MICA-BirA; MICA*01-BirA; not shown: BirA tag
T7 sequence: T1 sequence
Protocol: For monovalent affinity measurement, chimeric anti-MICA antibodies were captured onto a Protein-G chip.
Affinities were determined using single cycle kinetics (SCK). SCK cycles were as follows: Successive 120s injections at 30 μl/min of 5 serial dilutions (0.01 to 100 nM) of MICA-His or MICA-BirA in ascending order (or of buffer for the blank injections to be subtracted during the analysis). After the last concentration is injected, complex is left to dissociate for 600s before regeneration by a 10s injection of appropriate regeneration buffer at 40 μl/min. After the regeneration, chip is left to stabilise for 60s in running buffer. Curves are fitted using Biacore T100 Evaluation software.

- Kd [1]: 6.5 nM
- Kd [2]: 0.33 nM
B1: biotin-conjugated mouse antibody 20C6 (antibody, V domains shown)
VH: QITLKESGPGILKPSQTLSLTCSFSGFSLSTSGMGVGWIRQPSGKGLEWLAHIWWDDDKYYNPSLKSQLTISKDTSRNQVFLRITSVDTADTATYYCARRTQGYFDYWGQGTTLTVSS
VL: DIVMTQSPATLSVTPGDRVSLSCRASQSISDYLHWYQQKSHESPRLLIKYASQSISGIPSRFSGSGSGSDFTLSINSVEPEDVGVYYCQNGHSFPWTFGGGTKLEIK
notes: also called 20C6 (mouse)

- binding result [3]: no binding (tested: 10 µg/ml)
- EC50 [4]: 1.3 µg/mL
- EC50 [5]: 0.26 µg/mL
- EC50 [6]: 0.25 µg/mL
- EC50 [7]: 1.43 µg/mL
- Kd (MICA*001-BirA): 53 nM
B2: CHG1-M-MIA-12A10 (antibody, human IgG1, V domains shown)
VH: QVQLQQSGADLVRPGASVRLSCRASGYSFTNYWMNWVKQRPGQGLEWIGMIHPSDSETRLNQKFKDKATLTVDKSSNTAYMQLSSPTSEDSAIYYCARDDFFTMDYWGQGTSVTVSS
VL: DILLTQSPAILSVSPGERVSFSCRASQNIVTSIHWYQQSTNGSPRLLIKYASESISGIPSRFSGSGSGTDFTLTINSVESEDVADYYCQQSNIWPLTFGAGTKLELK
notes: the VH entry ends with ASTK

- Kd [2]: 0.00062 nM
B3: biotin-conjugated mouse antibody 9C10 (antibody, V domains shown)
VH: QVQLQQPGAELVRPGTSVNLSCKASGYSFTRYWMNWVKQRPGQGLEWIGMIHPSDSETRLNQKFKDKATLTVDKSSSTAYMQLSSPTSEDSAVYYCGYGNFFYVMDYWGQGTSVTVSS
VL: B2 VL with N28S, V30G, S39R, Y50F, T74N, V83I, I93F, L96F, A100S, L106V
notes: also called 9C10 (mouse)

- binding result [3]: no binding (tested: 10 µg/ml)
- EC50 [4]: 12.7 µg/mL
- EC50 [5]: 0.24 µg/mL
- EC50 [6]: 0.3 µg/mL
B4: CHG1-M-MIA-14B4 (antibody, V domains shown)
VH: QVQLQQPGAELVRPGASVKLSCKASGYSFTSYWMNWMKQRPGQGLEWIGMIHPSDSETRLNQKFKDKATLTVDKSSSTAYMQLNSPTSEDSAVYYCAREMGPYTLDYWGQGTSVTVSS
VL: B2 VL with E17A, V30D, S39R, T74S, V83I, I93Y
notes: the VH entry ends with ASTK

- Kd [1]: 2 nM
- Kd [2]: 0.031 nM
B5: biotin-conjugated mouse antibody 6E4 (antibody, V domains shown)
VH: EVQLVESGGALVKPGGSLKLSCAASGFTFSYYAMSWVRQTPEKRLEWVATISRGGNYIYYTDSVKGRFTISRDNAKNTLYLQMTSLRSEDTAMFYCASISDYDGAWLAYWGQGTLVTV
VL: DVLMTQTPLSLPVSLGDQASISCRSSQSIIHTNGNTYLEWYLQKPGQSPKLLIYKISNRFSGVPDRFSGSGSGTDFTLKISRVEAEDLGVYYCFQGSHVPWTFGGGTKLEIK
notes: also called 6E4 (mouse)
